Measurements published in the nanobody polyreactivity screen of Harvey et al. (2022).

Assay: yeast display, Sf9 membrane polyspecificity reagent, FACS + sequencing; frameworks hold sequencing errors
In short: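 Synthetic nanobody libraries on Saccharomyces cerevisiae BJ5465 were galactose-induced for 36–48 hours, stained 1 hour at 4 °C with 10% biotinylated, detergent-solubilized Sf9 membrane reagent and enriched on streptavidin microbeads. FACS then separated cells into low and high (top ~1%) gates by anti-HA (expression) and streptavidin (reagent binding) fluorescence. Genes were colony-PCR amplified, MiSeq 2 × 250 sequenced and CDR-length filtered. A clone's polyreactivity label is that of its gate of origin.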

| Sequence | polyreactivity (PSR sort gate) |
| --- | --- |
| QVQLVESGGGIVQAGGSLRLSCAASGSTFLYYAMGWYRQAPGKERELVAAISSGGSTYYADSVKGRFTISRDNAKNTVYLQMNSLKPEDTAVYYCAAVRPGYVAYYYWGQGTQVTVSS | high polyreactivity |
| QVQLVESGAGLVQAGGSLRLSCAASGLTFLQNALGWSRQAPGNERELVAAINIGTNTYADSVKGRFTISRDNAKNTVYLQMNSLKPEDTAVDYCNTDSAPYYWLSDNYDSWGQGTQVTVSS | low polyreactivity |
| QVQLVESGGGLVQAGGSLRLSCAASGSTFSPNAMGWYRQAPGKERELVAAISGSGGSTYYADSVKGRFTISRDNAKNTVYLQMNSLKPEDTAVYYCAADSYYDGDYWGQGTQVTVSS | low polyreactivity |
| QVQLVESGGGLVQAGGSLRLSCAASGRTFYYYARGWYRQAPGKERELVAAINTRGVSTYYEDSVKGRFTISRDNAKNTVYLQMNSLKPEDTAVYYCNKGFSYGRDYWGQGTQVTVSS | high polyreactivity |
| QVQLVESGGGLVQAGGSLRLSCAASGLTFQTNAMGWYRQAPGKERELVAAISRRGSSTYYADSVKGRFTISRDNAKNTVYLQMNSLKPEDTAVYYCNAVRYLFIYPRYDYWGQGTQVTVAS | high polyreactivity |
| QVQLVESGGCLVQAGGSLRLRCAASGPNFPGYTKGWYRHAPRKAREFVAAISYSGGSTYADSVKGRFTISRDNAKNTVYLQMNSLKPEDTSVYYCAVFLQHWLDMYYWGQGTQVNVSS | low polyreactivity |
| QVQLVESGGGLVQPGGSLRLSCAASGSIFTPNAMGWYRPAPGKERELVAAISSSSDRTYYADSVKGRFTISRDNAKNTVYLQMNSLKPEDTAVYYCAALSKTRGGYWGHGTQVTVSS | high polyreactivity |
| QVQLVESGGGLVQAGGSLRLSCADSGSIIYYAMGWNRQAPGKEREFVAAITKSGGSTYYADSVKGRFTISRDNAKNTVYLQMNSLKPEDTAVYYCAARGTWAGFYYWGQGTQVTVSS | high polyreactivity |
| QVQLVESGGGLVQAGGSLRLSCAASGITFYDYTMGWYRQAPGKERELVAAISSRGGSTYYADSVKGRFTISRDNAKNTVYLQMNSLKPEDTAVYYCNADYIYSFYWSFYEYDYWGQGTQVTVSS | high polyreactivity |
| QVQLVESGGGLVQAGGSLRLSCAASGFTFSVYVMGWYRQAPGKERELVAAISSGGDTTYADSVKGRFTISRDNAKNTVYLQMNSLKPEDTAVYYCAAYRVILYYLYDYWGQGTQVTVSS | low polyreactivity |
| QVQLQESGGGLVQAGGSLRLSCAASGSISPYYDMGWYRQAPGKEREFVAGISGGAITYYADSVKGRFTISRDNAKNTVYLQMNSLKPEDTAVYYFAADTGVYQYHSYWGQGTQVTVSS | low polyreactivity |
| LVQLVESGGGLVQAVGSLRLSCAASGFTIYGNAMGWYRRAPGKERELVAAITWRGGSTYYADSEKGRFTISRDNAKNTVYLQMNSLKPEDTAVYYCNALKGRPVRSYLASPSYRYDYWGQGTQVTVSS | high polyreactivity |
| QVQLQESGGGQVQAGGSLRWSCAASGYISTHYFMGWYRQAPGKDREFVAGISNGSITNYADSVKGRFTISRDNARNTVYLQMNSLKPEDTAVYYVAAYQWTYVRFGYWGQGTQVTVSG | high polyreactivity |
| QVQLVESGGGLVQAGGSLRLSCAASGRIFLGNAMGWYRQAPGKERELVAAIDASGGSTYYADSVKGRFTISRDNAKNTVYLQMNSLKPVDTAVYYCNAEPRYYSGGHGYDYWGQGTQVTVSS | low polyreactivity |
| QVQLVESGGGLVQAGGSLRLSCAASGRIFNRNAMGWYRQAPGKERELVAAISRSGDNTYYADSVKGRFTISRDNAKNTVYLQMNSLKPEDTAVYYCAKDGSLDAQSYDYDYWGQGTQVTVSS | low polyreactivity |
| QVQLVESGGGLVQAGGSLRLSCAASGSIFLQNAMGWYRQAPGKERELVAAITNGGSTNYADSVKGRFTISRDNAKNTVYLQMNSLKPEDTAVYYCAAERAILSSDKQSLWRFDYWGQGTQVTVSS | low polyreactivity |
| QVQLVESGGGLVQAGGSLRLSCAASGSIFATNTMGWYRQSPGKERELVATISSSDSTNYADSVKGRFTISRDNAKNTVYLEMNSLKPVDTAVYYCNKAYVDSTHGSYRWTYDYWGQGTQVTVSS | low polyreactivity |
| QVQLVESGGGLVQAGGSLRLSCAASGSIFYQYAMGWYRQAPGKEREMLAAIRYSGSSTYYADSVKGRFTISRDNAKNTVYLQMNSLKPEDTEVYYCGKTLRRRRGDRRYRVIEMDHWGQGTQVTVSS | low polyreactivity |
| QVQLLESGGGLVQAGGSLRLSCAASGFIFDIYAMGWYRQAPGKERELVASINWSGGDSTSYADSVKGRFTISRDNAKNTVFLQMYSLKPEDTAVYFCNAEYWSYSGGYPDEYDYWGLGTQVTVSS | low polyreactivity |
| QVQRVESGGGLVQAGGSLRLSCAASGIIFDSYAMGWYRQAPGKERELVAAITSDSGRTYYADSVKGRFTISRDNAKNTVYLQMNSLKPEDTAVYYCAKGWDGTYDYWGQGTQVTVSS | low polyreactivity |
| QVQLVESGGGLVQAGGSLRLSCAASGRIFTYYAMGWYRQAPGKERELVAAISSGGSTYYADSVKGRFTISRDNAKNTVYLQMNSLKPEDTAVYYCAADSIYYFPYDYWGQGTQVTVSS | high polyreactivity |
| QVQLVESGGGIVQAGGSLLLSCPASGRIFGVYAMGWYRQAPGKERELVAGINGGDSTYYADSVKGRFTISRDNAKNTVYLQMNSLKPEDTAVYYCAAEADESGSNYDYWGQGSQVTVSS | low polyreactivity |

| Sequence | polyreactivity (PSR sort gate) |
| --- | --- |
| QVQLVESGGGLVQAGGSLRLSCAASGRTFAHNAMGWYRQAPGKERELVAAITWSGGTTYYADSVKGRFTISRDNAKNTVYLHMNSLKPEDTAVYYCNTYSYQPDPKYDYWGQGTQVTVSS | low polyreactivity |
| QVQVVESGGGLVQAGGSLRLSCAASGSIFGRYAMGWYRQAPGKERELVAGITRGGSPYYADSVKGRFTISRDNAKNTVYLQMNSLKPEDTAVYYCNRAARYGEYDYWGQGTQVTVSS | high polyreactivity |
| QVQLVESGGGLVQAGGILSLSCAASGFTFTVYDMGWYRQAPGKERELVAVITSGDGTYYADSVKGRFTISRDNAKNTVYLQMNSLKPEDTAVYYCNARRYSSFRYRFAYDYWGQGTQVTVTS | low polyreactivity |
| QVQLVESGGGLVQAGGSLRLSCAASGRTFDSNAMGLYRQAPGKERELVAAISYGGGTTHYADSVKGRFTISRDNAKNTVYLQMNSLKPEDTAVYYCAADPEHQWESVTIGEYDYWGQGTQVTVSS | low polyreactivity |
| QVQLVESGGGLVQAGGSLRLSCAASGRTFVYNAMGWYRQAPGKERELVAAIDGGGDRTYYADSVKGRFTISRDNAKNTVYLQMTSLNPEDTAVYYCARDPGDTYYYSYPEGDYWGQGTQVTVSS | low polyreactivity |
| QVQLVDSGGGLVQAGGSLRLSCAASGSTLRRYAMGWYRQAPGKERELVAAISGSGDSTYYADSVKGRFTISRDNAKNTVYLQMNSLKPEDTAVYYCNAVYAFNGYDYWGQGTQVTVSS | low polyreactivity |
| QVQLVESGGGLVQAGGSLRLSCAASGSIFIDNAMGWYRQAPGKEREFVAAISKSGTSTYYADSVKGRFTISRDNAKNTVYLQMNSLKPEDTAVYYCAVRRPRPYSNYYYWGQGTQVTVSS | high polyreactivity |
| QVQLVESGGGLVQAGGSLRLSCAASGRTFRKYAMGWYRPAPGKERELVAAISWSGGSTRYADYVKGRFTISRDNEKNTVYLQMNSLKPEDTAVYYCNAVRRYRSTHPSYHTFNYWGQGTQVTVSS | high polyreactivity |
| QVQLVESVGGLVQAGGSLRLSCSASGSTFTGYAMGWYRQARGNEREFVATITKRGGRTYYADSVKGRFTISRDNAKNTVYLQMNSLKPEDSAVYYCARDQGKLFVPYDYWGKGTQVTVSS | high polyreactivity |
| QDQLVDSGGGLVQAGGSLRLICAASGRIFHCYAMGWYRQAPGKERELVAAIRASGGRTYYADSVKGRFTISRDNAKNTVYVQMNSLKPEDPAVYYCGADSVKYGGDYWGQGTQVTVSS | high polyreactivity |
| QVQLVESGGGLVQAGGSLRLSCAASGSTFRYYAKGWYRQAPGKERELVAAIAAGSNTNYADSVKGRFTISRDNAKNTVYLQMNSVKPEDTAVFYCAVASYARVQYEYWGQGTQVTVNS | low polyreactivity |
| QVQLVESGGGLVQAGGSLRISCAASGIIFPQYTMGWYRPAPGKERELVAVITSGGSTYYADSVKGRFTISRDNAKNTVYLQMNSLNPEDTAVYYCAAETETYWWTFITREYDYWGQGTQVTVSS | high polyreactivity |
| QVQLVESGGGLVQAGGSLRLSCAASGRTFFPNAMGWYRPAPAKERELVAAITNGDSTHYADSVKGRFTISRDNAKNTVYLQMNSLKPEDTAVYYCAAEDHYEGYGGYYWGQGTQVTVSS | low polyreactivity |
| QVQLVESGGGLVQAGGSLRLSCAASGFTFVYYAMGWYRQAPGKERELVAAISTRGGSTYYADSVKGRFTISRDNAKNTVYLQMTSLKPEDTAVYYCAARSYPPGLRFDYWGQGTQVTVSS | high polyreactivity |
| QVQLVESGGGLVQAGGSLRLSCAASAFIYSFNAMGWYSQAPGKERELVAAISRSGGSTRYADSVKGRFTISRDTAKNTVYLQMNSLKPEYTAVYYCATDASPVRKRYDYWGQGTQVTVSS | high polyreactivity |
| QVQIVESGGGLVQGGGSLRLSCAASGSIFGGNAMGWYRQAPGKERELVATITVRGGSTYNADSVKGRFTISRDNAKNTVYLQMNSLKPEDTAVYYCAARGVYLLPKYDYWGQGTQVTVSS | low polyreactivity |
| QVQLEESGGGLVQAGGSLRLSCAASGRTTYWYAMGWYRQAPGKERELVADISWSGGSTYYADSVKGRFTISRDNAKNTVYLQMNSLKPEDPAVYYCNAAEQKYSIYYAFDTGPYDYWGQGTQVTVSS | low polyreactivity |
| QVQLVESGGGLVQAGGSLRLSCAASGIIFSYYALGWYRQAPGKERELVAAITRGGGRTYYADSVKGRFTISRDNAKNTVSLQMNSLKPEDTAVYYCNALSRYVENDYWGQGTQVTVSS | high polyreactivity |
| QVQLVESRGGLLQAGGTLRLSCAASGLTITTYTMGWSIQAPGTERELVASINYRGGRTYYADSVKGRFSISRDNAKNTVYLQMNSLKPEDTAVYYCAKSRYYRRRQYYHYDYCGQGTQVTVSS | high polyreactivity |
| QVQLVESGGGIVQAGGSLRLLCAASGRNIINYDMGWYRQAPGKERELVAAITWSTGSTYADSVNGRFTISRDNAKNTVYLQMNSLSPEDTAVYYCAAPWGQTDDRHQGGDYWGQGTQVTVSS | low polyreactivity |
| QVQLVESGGGLVQAGGSLRLSCAASGIIFAYYAMGWYRQGPGKERELVASITNTGSTYYADSVKGRFTISRDNSKNTVYLQMNSLKPEDTAVYYCNAVLSSNTKWRYPGDYWGQGTQVTVSS | low polyreactivity |
